US20040048327A1
Numbered stars: 1 amine (or outer) side, 2 acyl side, 3 side chain; on linkers, the order of the positions; unused ones are H or OH. Square brackets hold non-standard residues; d marks the D form. * marks the point of attachment. AAsp = aza-Asp, O=C(N(CC(=O)[*:3])N[*:1])[*:2]; Cbz = O=C(OCc1ccccc1)*; NHBn = c1ccc(CN*)cc1

T1: caspase-3 (UniProt P42574)
T1 sequence (looked up): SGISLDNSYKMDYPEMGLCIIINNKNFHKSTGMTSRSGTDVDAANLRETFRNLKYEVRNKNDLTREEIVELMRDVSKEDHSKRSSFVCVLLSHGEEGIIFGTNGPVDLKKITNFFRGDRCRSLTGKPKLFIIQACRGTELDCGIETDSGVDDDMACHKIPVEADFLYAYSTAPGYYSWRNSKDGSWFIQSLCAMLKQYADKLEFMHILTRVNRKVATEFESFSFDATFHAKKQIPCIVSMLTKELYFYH

T2: caspase-6 (UniProt P55212)
T2 sequence (looked up): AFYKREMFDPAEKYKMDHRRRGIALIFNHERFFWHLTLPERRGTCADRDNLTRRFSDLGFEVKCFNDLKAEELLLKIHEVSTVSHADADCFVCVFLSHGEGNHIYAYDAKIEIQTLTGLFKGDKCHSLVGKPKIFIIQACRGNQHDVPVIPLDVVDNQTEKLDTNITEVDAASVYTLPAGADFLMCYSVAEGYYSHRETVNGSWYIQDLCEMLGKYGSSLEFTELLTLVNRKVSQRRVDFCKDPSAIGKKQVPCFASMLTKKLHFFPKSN


What follows are binders tested against autolytically stable caspase-1 variant (D381 E) (UniProt P29466) (assay: cell-based or functional assay).
Chain of autolytically stable caspase-1 variant (D381 E) (P29466 other isoform, or with tags, fused parts or gaps mutant limits assumed): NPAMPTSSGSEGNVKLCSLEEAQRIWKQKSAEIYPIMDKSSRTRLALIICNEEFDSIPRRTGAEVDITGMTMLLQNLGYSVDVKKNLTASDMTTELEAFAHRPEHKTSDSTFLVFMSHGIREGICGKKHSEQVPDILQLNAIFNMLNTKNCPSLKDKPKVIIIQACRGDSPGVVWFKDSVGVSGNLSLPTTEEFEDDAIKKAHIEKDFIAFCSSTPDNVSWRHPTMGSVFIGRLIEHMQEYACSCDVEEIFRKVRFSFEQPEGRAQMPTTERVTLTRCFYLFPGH

k2	Binder
25700 M⁻¹ s⁻¹	Cbz-LET[AAsp]-{(2S,3S)‑EP‑COOEt} [Cbz-Leu-Glu-Thr-AAsp-(2S, 3S)-EP-COOEt]
19600 M⁻¹ s⁻¹	Cbz-LET[AAsp]-{(2R,3R)‑EP‑COOEt} [Cbz-Leu-Glu-Thr-AAsp-(2R, 3R)-EP-COOEt]
43500 M⁻¹ s⁻¹	Cbz-LET[AAsp]-{(S,S)‑EP‑COOCH2Ph} [Cbz-Leu-Glu-Thr-AAsp-(S,S)-EP-COOCH2Ph]

These binders were tested against T1, caspase-3 (assay: cell-based or functional assay).

Binder	k2
Cbz-LET[AAsp]-{(2S,3S)‑EP‑CON(CH3)CH2Ph} [Cbz-Leu-Glu-Thr-AAsp-(2S,3S)-EP-CON(CH3)CH2Ph]	2640 M⁻¹ s⁻¹
Cbz-LET[AAsp]-{(2S,3S)‑EP‑COOEt} [Cbz-Leu-Glu-Thr-AAsp-(2S, 3S)-EP-COOEt]	3210 M⁻¹ s⁻¹
Cbz-LET[AAsp]-{(2S,3S)‑EP‑CON(CH2Ph)2} [Cbz-Leu-Glu-Thr-AAsp-(2S,3S)-EP-CON(CH2Ph)2]	2750 M⁻¹ s⁻¹
Cbz-LET[AAsp]-{(S,S)‑EP‑CO-Ala-NHBn} [Cbz-Leu-Glu-Thr-AAsp-(S,S)-EP-CO-Ala-NHCH2Ph]	1280 M⁻¹ s⁻¹
Cbz-LET[AAsp]-{(2R,3R)‑EP‑COOEt} [Cbz-Leu-Glu-Thr-AAsp-(2R, 3R)-EP-COOEt]	3250 M⁻¹ s⁻¹

Next, values leading:

k2	Binder
2550 M⁻¹ s⁻¹	Cbz-LET[AAsp]-{(S,S)‑EP‑CONHCH2CH2Ph} [Cbz-Leu-Glu-Thr-AAsp-(S,S)-EP-CONHCH2CH2Ph]
3520 M⁻¹ s⁻¹	Cbz-LET[AAsp]-{(S,S)‑EP‑COOCH2Ph} [Cbz-Leu-Glu-Thr-AAsp-(S,S)-EP-COOCH2Ph]

What follows are binders tested against T2, caspase-6 (assay: cell-based or functional assay).

k2	Binder
9680 M⁻¹ s⁻¹	Cbz-LET[AAsp]-{(2S,3S)‑EP‑CON(CH3)CH2Ph} [Cbz-Leu-Glu-Thr-AAsp-(2S,3S)-EP-CON(CH3)CH2Ph]
13800 M⁻¹ s⁻¹	Cbz-LET[AAsp]-{(2S,3S)‑EP‑CON(CH2Ph)2} [Cbz-Leu-Glu-Thr-AAsp-(2S,3S)-EP-CON(CH2Ph)2]
